What was measured:
[1] = target: truncated β1 adrenergic receptor (M. gallopavo β114-E130W, without an intact ICL3) (M. gallopavo) (UniProt P07700)
[2] = target: β1 adrenergic receptor with an intact ICL3 (M. gallopavo β114E130WIC3) (M. gallopavo) (UniProt P07700)

Substance: mini Gs (engineered GTPase domain of the Gαs protein), construct R414, I208A (domain or fragment)
- GDP release (decay of BODIPY FL GDP fluorescence) after addition of isoprenaline, 20 °C [1]: 60 s
- GDP release (decay of BODIPY FL GDP fluorescence) after addition of isoprenaline, 20 °C [2]: 60 s
